Article PMC4039619
Read-outs that look alike come from different tables or passages of the source.

What was measured:
[1] = target: insulin from porcine pancreas (porcine)
[2] = target: human proinsulin (human); test: ELISA
[3] = target: insulin from porcine pancreas (porcine); test: ELISA
[4] = target: recombinant human IGF-II (human); test: ELISA
Chain of recombinant human IGF-II (human) (P01344 25-91): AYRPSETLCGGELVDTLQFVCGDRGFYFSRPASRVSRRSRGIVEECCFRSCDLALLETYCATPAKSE

Chain of human recombinant decorin protein core (P07585 31-359): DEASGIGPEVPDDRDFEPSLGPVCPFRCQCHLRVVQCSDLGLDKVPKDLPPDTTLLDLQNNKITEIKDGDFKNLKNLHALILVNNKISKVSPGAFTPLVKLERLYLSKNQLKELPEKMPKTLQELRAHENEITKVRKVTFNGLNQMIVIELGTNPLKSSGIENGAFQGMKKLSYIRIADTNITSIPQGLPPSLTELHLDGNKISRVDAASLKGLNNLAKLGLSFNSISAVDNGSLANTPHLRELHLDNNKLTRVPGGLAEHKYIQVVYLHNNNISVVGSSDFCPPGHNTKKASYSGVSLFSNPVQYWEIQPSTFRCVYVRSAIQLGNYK
Chain of insulin from porcine pancreas (porcine) (P01315 25-54, chain 1 of 2): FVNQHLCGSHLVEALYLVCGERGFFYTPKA
Chain of insulin from porcine pancreas (porcine) (P01315 88-108, chain 2 of 2): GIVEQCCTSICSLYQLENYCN
Chain of decorin proteoglycan (P07585 31-359): as the sequence (P07585 31-359) above

Row | Substance | Kd [1] [nM] | Kd [2] [nM] | Kd [3] [nM] | Kd [4] [nM]
1 | decorin proteoglycan (from UniProt P07585 31-359) (natural protein) | 13.4 | – | – | –
2 | human recombinant decorin protein core (from UniProt P07585 31-359) (natural protein) | – | 9.3 | 3.1 | 1.5
